# Assays:
# [1] = target: mouse B6 class I antigens (mouse); assay: Binding of 9-mer peptides within p117-139 to mouse B6 (H-2^b) class I; RMA-S cell MHC stabilisation, flow cytometry
# [2] = target: mouse B6 class I antigens (mouse); assay: RMA-S cell MHC stabilisation, peptide 25 ug/ml, flow cytometry with FITC anti-D^b or anti-K^b; % increase of MFI over medium alone
Binder,Binding Affinity to Mouse MHC Class I [1],Binding Affinity to Mouse MHC Class I [2]
PNAPYLPSC [WT1 peptide P129-137 (…)],1%,–
SQASSGQAR [WT1 peptide P118-126 (…)],2%,–
SCLESQPAI [WT1 peptide human p136-144 (…)],–,52%
PSQASSGQA [WT1 peptide P117-125 (…)],2%,–
MFPNAPYLP [WT1 peptide P127-135 (…)],2%,–
ARMFPNAPY [WT1 peptide P125-133 (…)],1%,–
APYLPSCLE [WT1 peptide P131-139 (…)],1%,–
ALLPAVPSL [WT1 peptide human p10-18 (…)],–,2.2%
QARMFPNAP [WT1 peptide P124-132 (…)],1%,–
ASSGQARMF [WT1 peptide P120-128 (…)],1%,–
QASSGQARM [WT1 peptide P119-127 (…)],2%,–
NAPYLPSCL [WT1 peptide P130-138 (…)],79%,–
SSGQARMFP [WT1 peptide P121-129 (…)],1%,–
FPNAPYLPS [WT1 peptide P128-136 (…)],1%,–

# Results, then the binder that gave them:
Binding Affinity to Mouse MHC Class I [1],Binding Affinity to Mouse MHC Class I [2],Binder
–,0.8%,YSSDNLYQM [WT1 peptide p221-229 (…)]
–,1.2%,QMTSQLECM [WT1 peptide p228-236 (…)]
–,5.8%,NLYQMTSQL [WT1 peptide p225-233 (…)]
–,1%,NQMNLGATL [WT1 peptide p239-247 (…)]
–,33.6%,CMTWNQMNL [WT1 peptide p235-243 (…)]
–,1.2%,GCNKRYFKL [WT1 peptide p329-337 (…)]

# — patent publication US20070026008A1
